Source: paper PMC10769282

Molecular target: SARS-CoV-2 Spike, BA.1 variant of concern, 21-amino-acid truncated form (SARS-CoV-2 (BA.1)) (UniProt P0DTC2)

In order of falling IC50, neutralisation of BA.1 Spike pseudovirus:
1. SA58 VH T53L A61S (antibody)  12 µg/mL
2. SA58 VL S54T (antibody)  12 µg/mL
3. SA58 VH T53L A61S, VL N95V (antibody)  11 µg/mL
